This experiment has as its target T1, B3GNT2 (Homo sapiens, UniProt Q9NY97).
T1 construct: The respective ORFs of candidate genes [CD274 (NM_014143), MCL1 (NM_021960), JUNB (NM_002229), and B3GNT2 (NM_006577)] were synthesized; expressed in transfected cells; host or cells: A375 melanoma cells (lentiviral ORF overexpression)
T1 sequence (Q9NY97 1-397): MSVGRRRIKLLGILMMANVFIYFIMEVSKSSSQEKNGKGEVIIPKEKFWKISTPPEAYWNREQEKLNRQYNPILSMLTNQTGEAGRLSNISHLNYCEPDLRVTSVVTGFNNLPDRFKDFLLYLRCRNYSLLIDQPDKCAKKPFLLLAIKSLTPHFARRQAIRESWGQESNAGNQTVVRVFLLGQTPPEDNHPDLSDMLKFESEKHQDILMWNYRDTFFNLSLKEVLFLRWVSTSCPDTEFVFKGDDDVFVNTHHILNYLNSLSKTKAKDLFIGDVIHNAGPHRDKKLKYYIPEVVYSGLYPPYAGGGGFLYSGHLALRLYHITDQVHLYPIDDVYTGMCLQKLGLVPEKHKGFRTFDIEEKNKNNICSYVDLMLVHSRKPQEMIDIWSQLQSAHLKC
The experiment is described as follows: Co-IP of FLAG-tagged B3GNT2 followed by mass spectrometry. Type of experiment: cell-based. The arrangement: C-term IgG / C-term flag: unit not given here. In outline:
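Co-purifying proteins were identified by fractionated nano-LC–MS/MS on an Orbitrap Elite, run data-dependent. Beforehand, lysates in 1% Triton X-100/HEPES buffer were incubated overnight at 4° C with anti-FLAG or […] and pulled down on Protein A/G magnetic beads for 4 h. Duplicate biological replicates.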

The mark [1] stands for this setting: Co-IP followed by mass spectrometry of B3GNT2, C-term tag, FLAG pull-down.
Where [2] appears, read: Co-IP followed by mass spectrometry of B3GNT2, C-term tag, IgG pull-down.
Setting [3] is: Co-IP followed by mass spectrometry of B3GNT2, N-term tag, FLAG pull-down.
Where [4] appears, read: Co-IP followed by mass spectrometry of B3GNT2, N-term tag, IgG pull-down.

9 molecules from patent US20240261333A1, “NOVEL TARGETS FOR ENHANCING ANTI-TUMOR IMMUNITY” (THE BROAD INSTITUTE, INC., priority 2021, published 2024) can be followed below.

B1: PURA (protein)
chain: ADRDSGSEQGGAALGSGGSLGHPGSGSGSGGGGGGGGGGGGSGGGGGGAPGGLQHETQELASKRVDIQNKRFYLDVKQNAKGRFLKIAEVGAGGNKSRLTLSMSVAVEFRDYLGDFIEHYAQLGPSQPPDLAQAQDEPRRALKSEFLVRENRKYYMDLKENQRGRFLRIRQTVNRGPGLGSTQGQTIALPAQGLIEFRDALAKLIDDYGVEEEPAELPEGTSLTVDNKRFFFDVGSNKYGVFMRVSEVKPTYRNSITVPYKVWAKFGHTFCKYSEEMKKIQEKQREKRAACEQLHQQQQQQQEETAAATLLLQGEEEGEED
B1 gave a C-term flag under setting [1] of 3. Further, the “C-term IgG” value under setting [2] is listed as 0. In addition, the “N-term FLAG” value under setting [3] stood at 0. The “N-term IgG” value under setting [4] is reported as 2.

B2: PSMA3 (protein)
chain: SSIGTGYDLSASTFSPDGRVFQVEYAMKAVENSSTAIGIRCKDGVVFGVEKLVLSKLYEEGSNKRLFNVDRHVGMAVAGLLADARSLADIAREEASNFRSNFGYNIPLKHLADRVAMYVHAYTLYSAVRPFGCSFMLGSYSVNDGAQLYMIDPSGVSYGYWGCAIGKARQAAKTEIEKLQMKEMTCRDIVKEVAKIIYIVHDEVKDKAFELELSWVGELTNGRHEIVPKDIREEAEKYAKESLKEEDESDDDNM
Regarding B2, the C-term flag under setting [1] is given as 0. Besides, under setting [2], the “C-term IgG” value is on record as 0. For the same molecule, the “N-term FLAG” value under setting [3] stood at 4. The “N-term IgG” value under setting [4] was 0.

B3: SYNPO (protein, UniProt Q8N3V7 1-929, looked up)
Synaptopodin: MLGPHLPPPPLAPSEGRPTPCAFQIPDGSYRCLALEAEESSGEEGLQGEVGPTDLEEDEGVSRSGDDSACRVTQGTPQLPKALGIQPPSCSREEQGASQHDDRASQDWDVVKAGQMMTASPSPGPGPRVAQKPALGRSTSLTEKDLKEAKARSQQIAAQLTTPPSSNSRGVQLFNRRRQRVNEFTLESHGQRGQKPSQESLRVLPSSLPGHAPGLSLSSTSLPEPGPPRHPSPQSPDRGVPGHSMEGYSEEASLLRHLEKVASEEEEVPLVVYLKENAALLTANGLHLSQNREAQQSSPAPPPAEVHSPAADVNQNLASPSATLTTPTSNSSHNPPATDVNQNPPATVVPQSLPLSSIQQNSSEAQLPSNGTGPASKPSTLCADGQPQAPAEEVRCSTLLIDKVSTPATTTSTFSREATLIPSSRPPASDFMSSSLLIDIQPNTLVVSADQEMSGRAAATTPTKVYSEVHFTLAKPPSVVNRTARPFGIQAPGGTSQMERSPMLERRHFGEKAPAPQPPSLPDRSPRPQRHIMSRSPMVERRMMGQRSPASERRPLGNFTAPPTYTETLSTAPLASWVRSPPSYSVLYPSSDPKSSHLKGQAVPASKTGILEESMARRGSRKSMFTFVEKPKVTPNPDLLDLVQTADEKRRQRDQGEVGVEEEPFALGAEASNFQQEPAPRDRASPAAAEEVVPEWASCLKSPRIQAKPKPKPNQNLSEASGKGAELYARRQSRMEKYVIESSSHTPELARCPSPTMSLPSSWKYPTNAPGAFRVASRSPARTPPASLYHGYLPENGVLRPEPTKQPPYQLRPSLFVLSPIKEPAKVSPRAASPAKPSSLDLVPNLPKGALPPSPALPRPSRSSPGLYTSPGQDSLQPTAVSPPYGGDISPVSPSRAWSPRAKQAPRPSFSTRNAGIEAQVWKPSFCFK
B3 displayed a C-term flag under setting [1] of 7. Also, the “C-term IgG” value under setting [2] was 4. For the same molecule, under setting [3], the “N-term FLAG” value is recorded as 4. Further, the “N-term IgG” value under setting [4] was 4.

B4: CALML5 (protein)
chain: AGELTPEEEAQYKKAFSAVDTDGNGTINAQELGAALKATGKNLSEAQLRKLISEVDSDGDGEISFQEFLTAAKKARAGLEDLQVAFRAFDQDGDGHITVDELRRAMAGLGQPLPQEELDAMIREADVDQDGRVNYEEFARMLAQE
Under setting [1], B4 gave a C-term flag of 4. Moreover, the “C-term IgG” value under setting [2] is recorded as 0. Besides, the “N-term FLAG” value under setting [3] amounted to 0. Besides, the “N-term IgG” value under setting [4] is 0.

B5: LUC7L3 (protein, UniProt O95232 1-432, looked up)
Luc7-like protein 3: MISAAQLLDELMGRDRNLAPDEKRSNVRWDHESVCKYYLCGFCPAELFTNTRSDLGPCEKIHDENLRKQYEKSSRFMKVGYERDFLRYLQSLLAEVERRIRRGHARLALSQNQQSSGAAGPTGKNEEKIQVLTDKIDVLLQQIEELGSEGKVEEAQGMMKLVEQLKEERELLRSTTSTIESFAAQEKQMEVCEVCGAFLIVGDAQSRVDDHLMGKQHMGYAKIKATVEELKEKLRKRTEEPDRDERLKKEKQEREEREKEREREREERERKRRREEEEREKERARDRERRKRSRSRSRHSSRTSDRRCSRSRDHKRSRSRERRRSRSRDRRRSRSHDRSERKHRSRSRDRRRSKSRDRKSYKHRSKSRDREQDRKSKEKEKRGSDDKKSSVKSGSREKQSEDTNTESKESDTKNEVNGTSEDIKSEGDTQSN
Take B5: under setting [1], the C-term flag came out at 3. Besides, the “C-term IgG” value under setting [2] turned out to be 3. In addition, the “N-term FLAG” value under setting [3] was 4. Besides, under setting [4], the “N-term IgG” value is reported as 2.

B6: TGM1 (protein)
chain: MMDGPRSDVGRWGGNPLQPPTTPSPEPEPEPDGRSRRGGGRSFWARCCGCCSCRNAADDDWGPEPSDSRGRGSSSGTRRPGSRGSDSRRPVSRGSGVNAAGDGTIREGMLVVNGVDLLSSRSDQNRREHHTDEYEYDELIVRRGQPFHMLLLLSRTYESSDRITLELLIGNNPEVGKGTHVIIPVGKGGSGGWKAQVVKASGQNLNLRVHTSPNAIIGKFQFTVRTQSDAGEFQLPFDPRNEIYILFNPWCPEDIVYVDHEDWRQEYVLNESGRIYYGTEAQIGERTWNYGQFDHGVLDACLYILDRRGMPYGGRGDPVNVSRVISAMVNSLDDNGVLIGNWSGDYSRGTNPSAWVGSVEILLSYLRTGYSVPYGQCWVFAGVTTTVLRCLGLATRTVTNFNSAHDTDTSLTMDIYFDENMKPLEHLNHDSVWNFHVWNDCWMKRPDLPSGFDGWQVVDATPQETSSGIFCCGPCSVESIKNGLVYMKYDTPFIFAEVNSDKVYWQRQDDGSFKIVYVEEKAIGTLIVTKAISSNMREDITYLYKHPEGSDAERKAVETAAAHGSKPNVYANRGSAEDVAMQVEAQDAVMGQDLMVSVMLINHSSSRRTVKLHLYLSVTFYTGVSGTIFKETKKEVELAPGASDRVTMPVAYKEYRPHLVDQGAMLLNVSGHVKESGQVLAKQHTFRLRTPDLSLTLLGAAVVGQECEVQIVFKNPLPVTLTNVVFRLEGSGLQRPKILNVGDIGGNETVTLRQSFVPVRPGPRQLIASLDSPQLSQVHGVIQVDVAPAPGDGGFFSDAGGDSHLGETIPMASRGGA
Under setting [1], B6 had a C-term flag of 8. For the same molecule, the “C-term IgG” value under setting [2] was 10. In addition, the “N-term FLAG” value under setting [3] is given as 17. Besides, the “N-term IgG” value under setting [4] was 9.

B7: ERLEC1 (protein)
chain: LPQLSDDIPFRVNWPGTEFSLPTTGVLYKEDNYVIMTTAHKEKYKCILPLVTSGDEEEEKDYKGPNPRELLEPLFKQSSCSYRIESYWTYEVCHGKHIRQYHEEKETGQKINIHEYYLGNMLAKNLLFEKEREAEEKEKSNEIPTKNIEGQMTPYYPVGMGNGTPCSLKQNRPRSSTVMYICHPESKHEILSVAEVTTCEYEVVILTPLLCSHPKYRFRASPVNDIFCQSLPGSPFKPLTLRQLEQQEEILRVPFRRNKEEDLQSTKEERFPAIHKSIAIGSQPVLTVGTTHISKLTDDQLIKEFLSGSYCFRGGVGWWKYEFCYGKHVHQYHEDKDSGKTSVVVGTWNQEEHIEWAKKNTARAYHLQDDGTQTVRCKESDSPHAVTVYMLEPHSCQYILGVESPVICKILDTADENGLLSLPN
The molecule B7 had a C-term flag (Co-IP with FLAG antibody, C-terminally FLAG-tagged B3GNT2, mass spectrometry count, unit not given) of 3. In addition, for the setting “Co-IP with FLAG antibody, N-terminally FLAG-tagged B3GNT2, mass spectrometry count, unit not given”, the “N-term FLAG” value was found to be 0. Moreover, the “C-term IgG” value (Co-IP with IgG control antibody, C-terminally FLAG-tagged B3GNT2, mass spectrometry count, unit not given) is reported as 0. Also, the “N-term IgG” value (Co-IP with IgG control antibody, N-terminally FLAG-tagged B3GNT2, mass spectrometry count, unit not given) is 0.

B8: SERPINB3 (protein)
chain: MNSLSEANTKFMFDLFQQFRKSKENNIFYSPISITSALGMVLLGAKDNTAQQIKKVLHFDQVTENTTGKAATYHVDRSGNVHHQFQKLLTEFNKSTDAYELKIANKLFGEKTYLFLQEYLDAIKKFYQTSVESVDFANAPEESRKKINSWVESQTNEKIKNLIPEGNIGSNTTLVLVNAIYFKGQWEKKFNKEDTKEEKFWPNKNTYKSIQMMRQYTSFHFASLEDVQAKVLEIPYKGKDLSMIVLLPNEIDGLQKLEEKLTAEKLMEWTSLQNMRETRVDLHLPRFKVEESYDLKDTLRTMGMVDIFNGDADLSGMTGSRGLVLSGVLHKAFVEVTEEGAEAAAATAVVGFGSSPTSTNEEFHCNHPFLFFIRQNKTNSILFYGRFSSP
In the case of B8, the C-term flag under setting [1] worked out at 9. The “C-term IgG” value under setting [2] amounted to 2. Also, the “N-term FLAG” value under setting [3] is listed as 10. Also, under setting [4], the “N-term IgG” value stood at 3.

B9: SPARC (protein)
chain: APQQEALPDETEVVEETVAEVTEVSVGANPVQVEVGEFDDGAEETEEEVVAENPCQNHHCKHGKVCELDENNTPMCVCQDPTSCPAPIGEFEKVCSNDNKTFDSSCHFFATKCTLEGTKKGHKLHLDYIGPCKYIPPCLDSELTEFPLRMRDWLKNVLVTLYERDEDNNLLTEKQKLRVKKIHENEKRLEAGDHPVELLARDFEKNYNMYIFPVHWQFGQLDQHPIDGYLSHTELAPLRAPLIPMEHCTTRFFETCDLDNDKYIALDEWAGCFGIKQKDIDKDLVI
The molecule B9 showed a C-term flag under setting [1] of 4. For the same molecule, under setting [2], the “C-term IgG” value was 0. Under setting [3], the “N-term FLAG” value stood at 0. In addition, the “N-term IgG” value under setting [4] is 0.
